The target in one assay is T1, tumor cell integrin αvβ3 (Homo sapiens, UniProt P05106+P06756).
T1 construct: Primary metastatic cells from blood samples of stage IV breast cancer patients (BCM1, BCM2, BMS) were isolated; endogenous in cells; host or cells: BMS cells (primary metastatic breast cancer cells from patient blood)
The experiment in a line: Flow cytometry, scFv binding to BMS cells in fresh human plasma. The following applies: saturable binding. The procedure:
FIG. 4. Patient derived ligand mimetic scFvs Bc-12 and Bc-15 against activated αvβ3 are internalized and bind to breast cancer cells in human plasma and affect breast cancer survival. Flow cytometric analysis with human metastatic breast cancer cells (BMS) isolated from a patient blood sample. All binding and washing steps were done in fresh human plasma prepared from blood anticoagulated with 50 nM PPACK.
Flow cytometry. scFv binding to human tumor cells was analyzed by flow cytometry, initially with cloned scFv phage and then with purified scFv protein. Per sample, 2×10^5 tumor cells were blocked with goat serum and incubated either with scFv phage (2-5×10^10) (1 h at RT) followed by mouse anti-M13 mAb (Serotec) (30 min on ice) and goat FITC-anti mouse (Pierce) (30 min on ice), or with purified scFv (1.25 to 40 μg/ml, routinely 10 to 15 μg/ml) (45 min on ice), followed by mouse anti-FLAG mAb M2 (Sigma) (30 min on ice) and goat FITC-anti mouse. […] All samples were counter stained with propidium iodide (PI) and analyzed on a Becton-Dickinson FACScan, with live gate set to exclude PI positive cells.
Antimetastatic activity of scFv antibodies against activated αvβ3 inhibit hematogenous breast cancer metastasis in vivo. […] The antibodies bound the cells in a saturable manner with half maximal binding measured at 40 nM scFv (1 μg/ml) (FIG. 4).

The next assay relates to integrin αvβ3. The experiment in a line: Flow cytometry, scFv binding to human tumor cell panel. How it is done: FIGS. 1A, 1B, 1C. Patient derived scFvs Bc-12 and Bc-15 recognize tumor cell integrin αvβ3 in a cation and activation dependent manner. Flow cytometric analyses in TBS with or without 1 mM Ca^2+, 1 mM Mg^2+, or 0.2 mM Mn^2+ as indicated. Binding of soluble scFv detected after incubation with anti-Flag M2 murine mAb followed by FITC-anti mouse F(ab′)2. (A) scFv binding to human melanoma cells (M21: αvβ3 plus other αv integrins) (M21-LIIb: αIIbβ3, no αv integrins) or lung adenocarcinoma cells (UCLA-P3: αv integrins, no β3 integrin). (B) scFv binding to M21 melanoma cells. (C) scFv binding to variants of MDA-MB 435 human breast cancer cells that lack (β^3−) or express αvβ3 either in a non-activated (β3WT, ParentCo) or activated form (β3D723R, Bone, Lung, and BMS metastatic cancer cells isolated from breast cancer patient blood).
Flow cytometry. scFv binding to human tumor cells was analyzed by flow cytometry, initially with cloned scFv phage and then with purified scFv protein. Per sample, 2×10^5 tumor cells were blocked with goat serum and incubated either with scFv phage (2-5×10^10) (1 h at RT) followed by mouse anti-M13 mAb (Serotec) (30 min on ice) and goat FITC-anti mouse (Pierce) (30 min on ice), or with purified scFv (1.25 to 40 μg/ml, routinely 10 to 15 μg/ml) (45 min on ice), followed by mouse anti-FLAG mAb M2 (Sigma) (30 min on ice) and goat FITC-anti mouse. Binding/washing buffer was TBS with or without divalent cations (1 mM Ca^2+, 1 mM Mg^2+, 0.2 mM Mn^2+). Alternatively, tumor cells were washed in 10 ml of plasma (prepared freshly from human blood anticoagulated with 50 nM D-Phe-D-Pro-D-arginyl chloromethyl ketone, PPACK, Felding-Habermann et al., J. Biol. Chem. 271: 5892-5900, 1996), resuspended in plasma and then incubated sequentially, without washing, with purified scFv (45 min on ice), followed by anti-FLAG M2 (30 min on ice) and FITC-anti mouse (30 min on ice). All samples were counter stained with propidium iodide (PI) and analyzed on a Becton-Dickinson FACScan, with live gate set to exclude PI positive cells.
To generate therapeutic reagents that specifically react with activated αvβ3, a phage display library of single chain antibody fragments (scFv) was exploited. This library was derived from cancer patient blood lymphocyte cDNA libraries and allowed us to test the hypothesis that the expressed immune repertoire contains antibodies that recognize integrin αvβ3, and distinguish between its activated and non-activated forms. Mao et al., Proc. Natl. Acad. Sci. U.S.A 96: 6953-6958, 1999. A subtractive panning approach was designed based on variants of MDA-MB 435 human breast cancer cells. […] Apparently, these cells are selected during metastasis, as variant cells isolated from lung and bone metastases in immune deficient mice express constitutively activated αvβ3. To establish a cell population that uniformly expresses non-activated αvβ3, MDA-MB 435 parental cells were cloned by limiting dilution, and clones tested for αvβ3 functionality. […] A cell line, MDA-MB 435 Lung-Lung, was established which expressed αvβ3 in a constitutively activated form. This variant stems from a lung metastase of an immune deficient mouse whose mammary fat pad had been injected with parental MDA-MB 435 cells. Felding-Habermann et al., Proc. Natl. Acad. Sci. U.S.A 98: 1853-1858, 2001; Rolli et al., Proc. Natl. Acad. Sci. U.S.A 100: 9482-9487, 2003. To enrich for the ability to colonize the lung from the blood stream, the Lung variant was subsequently injected intravenously, and tumor cells cultured 3 weeks later from the excised lung. Parent Combo cells were used to subtract the scFv phage library to eliminate antibodies against antigens shared by the MDA-MB 435 cell variants. […]
For orientation: In flow cytometry, cells or beads pass a laser one at a time.

T1 sequence (P06756 31-889 limits assumed): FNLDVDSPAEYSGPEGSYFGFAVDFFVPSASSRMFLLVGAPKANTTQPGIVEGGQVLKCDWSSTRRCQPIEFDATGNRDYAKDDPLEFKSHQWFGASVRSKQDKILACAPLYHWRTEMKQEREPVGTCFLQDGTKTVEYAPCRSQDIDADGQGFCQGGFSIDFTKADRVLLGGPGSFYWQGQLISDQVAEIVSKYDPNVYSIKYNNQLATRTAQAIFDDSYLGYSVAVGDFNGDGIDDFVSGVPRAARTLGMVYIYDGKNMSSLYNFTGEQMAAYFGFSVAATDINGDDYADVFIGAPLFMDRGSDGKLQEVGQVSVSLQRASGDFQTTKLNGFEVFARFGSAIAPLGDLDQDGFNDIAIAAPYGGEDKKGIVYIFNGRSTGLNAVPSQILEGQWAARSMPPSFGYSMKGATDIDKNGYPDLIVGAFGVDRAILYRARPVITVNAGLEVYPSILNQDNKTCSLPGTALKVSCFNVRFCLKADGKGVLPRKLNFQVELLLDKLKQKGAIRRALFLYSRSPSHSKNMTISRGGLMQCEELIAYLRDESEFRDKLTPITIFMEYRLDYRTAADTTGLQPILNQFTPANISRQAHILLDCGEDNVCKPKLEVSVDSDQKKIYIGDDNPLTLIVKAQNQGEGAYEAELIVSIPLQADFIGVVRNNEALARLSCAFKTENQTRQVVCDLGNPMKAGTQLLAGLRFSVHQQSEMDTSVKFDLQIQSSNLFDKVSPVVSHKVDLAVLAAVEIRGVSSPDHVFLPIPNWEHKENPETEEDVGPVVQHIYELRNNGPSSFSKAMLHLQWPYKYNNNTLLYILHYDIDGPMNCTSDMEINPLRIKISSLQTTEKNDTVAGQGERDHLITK
T1 sequence (P06756 891-1048 partner limits assumed): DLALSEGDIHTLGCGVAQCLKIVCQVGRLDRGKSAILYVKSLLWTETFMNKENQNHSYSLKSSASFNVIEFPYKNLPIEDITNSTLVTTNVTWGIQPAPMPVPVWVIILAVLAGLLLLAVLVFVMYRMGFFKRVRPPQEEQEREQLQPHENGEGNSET
T1 sequence (P05106 27-788): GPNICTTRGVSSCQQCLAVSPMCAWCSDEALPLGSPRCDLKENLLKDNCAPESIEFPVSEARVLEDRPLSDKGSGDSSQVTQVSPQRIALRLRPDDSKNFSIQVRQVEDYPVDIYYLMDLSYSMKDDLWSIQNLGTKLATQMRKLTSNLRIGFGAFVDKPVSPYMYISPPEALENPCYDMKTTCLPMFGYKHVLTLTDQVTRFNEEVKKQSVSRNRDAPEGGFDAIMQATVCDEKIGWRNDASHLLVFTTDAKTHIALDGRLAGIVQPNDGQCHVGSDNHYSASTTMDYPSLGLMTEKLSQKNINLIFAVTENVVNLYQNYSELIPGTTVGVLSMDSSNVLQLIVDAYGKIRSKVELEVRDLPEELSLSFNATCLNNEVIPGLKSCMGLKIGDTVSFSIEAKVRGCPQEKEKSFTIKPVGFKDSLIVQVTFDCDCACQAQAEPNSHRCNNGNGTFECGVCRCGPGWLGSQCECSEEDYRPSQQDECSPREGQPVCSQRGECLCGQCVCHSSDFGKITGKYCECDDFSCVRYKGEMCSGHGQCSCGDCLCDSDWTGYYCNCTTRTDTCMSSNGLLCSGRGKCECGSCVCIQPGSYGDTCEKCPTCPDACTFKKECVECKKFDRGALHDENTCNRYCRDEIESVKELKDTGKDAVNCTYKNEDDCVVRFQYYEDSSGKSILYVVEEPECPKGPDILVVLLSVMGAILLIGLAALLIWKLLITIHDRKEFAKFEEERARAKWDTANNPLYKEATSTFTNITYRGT

B1: Bc-12: patient derived human scFv antibody against activated αvβ3 with RGD motif in CDR-H3; cDNA ATCC PTA-6303 (protein)
scFv: MAQVQLVQSGAEVKKPGASVKVSCKASGYTFSNYGITWVRQAPGQGLEWMGWINNGNTHYAQKFQGRVTMTTDTSTSTAYMELRSLRSDDTAVYYCARDPRGDDEPYWGQGTLVTVSSGGGGSGGGGSGGGGSEIVLTQSPLSLPVTLGQPASISCRSSQNLVYSDGNTYLSWFQQRPGQSPRRLIYKVSNRDSGVPDRFSGSGSGTDFTLKISRVEAEDIGVYYCMQGTHWPPRTFGQGTKVEIKRGLGGLVDYKDDDDK
B1: in the assay with tumor cell integrin αvβ3, the half maximal binding was 1 µg/mL. Besides, the EC50 with tumor cell integrin αvβ3 (read-out: half maximal binding) stood at 40 nM. The “binding in the presence of Mn2+” value in the assay on integrin αvβ3 (0.2 mM Mn^2+) is recorded as “greatly enhanced”. For the same molecule, in the assay with integrin αvβ3 (1 mM Mg^2+, M21 cells), the “binding in the presence of Mg2+” value is listed as “at the same level as Ca^2+”. Besides, the “effect of Ca2+ on Mn2+ enhanced binding” value in the assay on integrin αvβ3 (Ca^2+ combined with Mn^2+, M21 cells) is “reduced the enhancing effect of Mn^2+”. For the same molecule, the “reactivity with human tumor cells that express or lack αvβ3” value in the assay on integrin αvβ3 (M21, M21-LIIb, UCLA-P3 cells, flow cytometry) is recorded as “reacted only with cells expressing the αvβ3 heterodimer”. Besides, the “binding to M21-L cells” value with integrin αvβ3 (M21-L cells (no αv integrins)) is on record as “failed to bind”. For the same molecule, in the assay with integrin αvβ3 (TBS with or without divalent cations), the “cation requirement of binding” value is “showed a cation dependence”. The “binding in the presence of Ca2+” value with integrin αvβ3 (physiological Ca^2+ levels (1 mM)) is “measurable”. In addition, in the assay with integrin αvβ3 (αvβ3 expression restored by transfection), the “reactivity with M21-L4 cells” value is “did react”.

The values are drawn from patent US7271245B2, “Methods and compositions for inhibition of metastasis” (The Scripps Research Institute, priority 2004, dated 2007).
